Measured values taken from patent US20250382369A1 (UCL BUSINESS, published 2025).
Changes are numbered by the printed parent chain.

T1: human 4Ig-B7-H3 expressed on transduced cells (human, UniProt Q5ZPR3 29-534)
T1 construct: also called isoform 1; Jurkat-B7H3
T1 sequence: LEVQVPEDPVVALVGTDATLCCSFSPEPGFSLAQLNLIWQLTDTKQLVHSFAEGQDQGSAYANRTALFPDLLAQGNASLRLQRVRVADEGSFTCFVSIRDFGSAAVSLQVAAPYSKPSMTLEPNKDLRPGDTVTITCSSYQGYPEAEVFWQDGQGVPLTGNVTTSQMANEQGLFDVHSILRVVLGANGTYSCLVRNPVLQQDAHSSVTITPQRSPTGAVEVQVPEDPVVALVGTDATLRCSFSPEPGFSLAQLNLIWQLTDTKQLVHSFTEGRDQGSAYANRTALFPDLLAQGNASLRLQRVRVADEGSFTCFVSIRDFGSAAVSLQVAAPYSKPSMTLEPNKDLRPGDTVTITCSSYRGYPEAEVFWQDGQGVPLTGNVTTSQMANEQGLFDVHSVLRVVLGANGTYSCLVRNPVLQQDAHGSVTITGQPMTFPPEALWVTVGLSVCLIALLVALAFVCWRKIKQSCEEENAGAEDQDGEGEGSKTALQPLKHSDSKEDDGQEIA

T2: recombinant mouse B7-H3 (plate bound) (mouse, UniProt Q8VE98 29-244, limits assumed)
T2 sequence (looked up): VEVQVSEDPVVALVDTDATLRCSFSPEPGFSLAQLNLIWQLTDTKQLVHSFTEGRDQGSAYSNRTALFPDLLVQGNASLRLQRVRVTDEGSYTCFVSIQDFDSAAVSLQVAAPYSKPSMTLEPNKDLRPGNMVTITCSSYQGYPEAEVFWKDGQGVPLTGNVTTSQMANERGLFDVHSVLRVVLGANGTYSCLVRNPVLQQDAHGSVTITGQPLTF

T3: human B7H3 expressed on cell surface (human, UniProt Q5ZPR3 29-534)
T3 construct: whole, on cells; also called B7-H3 on LAN-1, Kelly, IMR-32 and other B7-H3 positive target cell lines
T3 sequence (looked up): T1 sequence

T4: mouse B7-H3 on the mouse cell line 3T3/NA1 (mouse, UniProt Q8VE98 29-316)
T4 construct: whole, on cells
T4 sequence (looked up): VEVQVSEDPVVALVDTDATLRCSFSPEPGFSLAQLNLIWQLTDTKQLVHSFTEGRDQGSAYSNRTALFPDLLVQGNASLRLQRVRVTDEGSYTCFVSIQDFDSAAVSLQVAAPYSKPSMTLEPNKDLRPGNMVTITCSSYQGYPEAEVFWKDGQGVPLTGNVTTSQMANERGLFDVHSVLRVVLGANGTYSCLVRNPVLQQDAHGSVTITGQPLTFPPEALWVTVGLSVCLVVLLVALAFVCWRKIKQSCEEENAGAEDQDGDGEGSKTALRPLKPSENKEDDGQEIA

B1: BF9 scFv-Fc fusion protein (Fc fusion)
scFv: QVKLQQSGAELVKPGASVKLSCKASGYTFTSYWVHWVKQRPGQGLEWIGMIHPKSGSADYNEKFTTKATLTADKSSSTAYMQLSSLTSEDSAVYYCARGGYGSPFDYWGQGTTVTVSSGGGGSGGGGSGGGGSENVLTQSPAIMSASPGEKVTMTCSASSSVSYMYWYQQKPGSSPRLLIYDTSNLASGAPVRFSGRGSGTSYSLTISSMEAEDAATYYCQQWSNNPLTFGAGTKLELK
notes: not shown: Fc of the scFv-Fc fusion, and any hinge or junction to it
B2: TE9 chimeric human IgG1 full antibody (antibody, V domains shown)
VH: QVQLQQSGAALVKPGTSVKLSCKASGYTFTSYWMHWVKQRPGQGLEWIGMIHPKSGSVDYNEKFTNKATLTGDKSSGTAYMQLSSLTSEDSAVYYCARGGYGSPFDYWGQGTTVTVSS
VL: ENVLTQSPAIMSASPGEKVTMTCSASSSVSYMYWYQQKPGSSPRLLIYRTSNLASGVPARFSGSGSGTSYSLTISSMEAEDAATYYCQQWSSNPPTFGGGTKLEIK
notes: Chimeric antibody, mouse variable domains cloned into full human IgG1; also called TE9 antibody; TE9 whole antibody
B3: TC6 scFv-Fc fusion protein (Fc fusion, not shown: a dimerising Fc or GST; small tags and cut ends)
scFv: QVKLQESGAELVKPGASVKLSCKASGYTFTSYWIHWVKQRPGQGLEWIGMIHPKSGSINYNEKFRSKATLTVDKSSSTAYMQLSRLTSEDSAVYFCASGGYGSSLDYWGQGTTVTVSSGGGGSGGGGSGGGGSQIVLTQSPAIMSASPGEKVTMTCSASSSVSYMYWYQQKPRSSPISWIYLTSNLASGVPARFSGSGSGTSYSLTISSMEAEDAATYYCQQWSSDPLTFGAGTKLELK
B4: TF9 scFv-Fc fusion protein (Fc fusion)
scFv: B3 scFv with Q134E, I135N, M154I, T155S, M165V, R173G, I177K, S178P, L182R, D226N
notes: as for B1
B5: BH6 chimeric human IgG1 full antibody (antibody, V domains shown)
VH: QVKLQQSGADLVKPGASVKLSCKASGYTFTSYWMHWVKQRPGQGLEWIGMIHPNSDGTNYNEKFKNRATLTVDKSSSTAYMQLNSLTSEDSAVYYCARWSYGMDSWGQGTTVTVSS
VL: DIVLTQSPASLAVSLGQRATITCSASSSVSYMHWYQQKSGTSPKRWIYDTSKLASGVPARFSGSGSGTSYSLTISSMEAEDAATYYCQQWSRNPLTFGAGTKLEIK
notes: Chimeric antibody with a human IgG1 Fc domain; also called BH6 antibody
B6: BH6 scFv-Fc fusion protein (Fc fusion, not shown: a dimerising Fc or GST; small tags and cut ends)
scFv: QVKLQQSGADLVKPGASVKLSCKASGYTFTSYWMHWVKQRPGQGLEWIGMIHPNSDGTNYNEKFKNRATLTVDKSSSTAYMQLNSLTSEDSAVYYCARWSYGMDSWGQGTTVTVSSGGGGSGGGGSGGGGSDIVLTQSPASLAVSLGQRATITCSASSSVSYMHWYQQKSGTSPKRWIYDTSKLASGVPARFSGSGSGTSYSLTISSMEAEDAATYYCQQWSRNPLTFGAGTKLEIK
B7: TE9 scFv-Fc fusion protein (Fc fusion, not shown: a dimerising Fc or GST; small tags and cut ends)
scFv: QVQLQQSGAALVKPGTSVKLSCKASGYTFTSYWMHWVKQRPGQGLEWIGMIHPKSGSVDYNEKFTNKATLTGDKSSGTAYMQLSSLTSEDSAVYYCARGGYGSPFDYWGQGTTVTVSSGGGGSGGGGSGGGGSENVLTQSPAIMSASPGEKVTMTCSASSSVSYMYWYQQKPGSSPRLLIYRTSNLASGVPARFSGSGSGTSYSLTISSMEAEDAATYYCQQWSSNPPTFGGGTKLEIK

Columns and labels:
[1] = biological target: T1, human 4Ig-B7-H3 expressed on transduced …; assay: flow cytometry, scFv-Fc on Jurkat cells transduced with B7-H3 isoforms (FIG. 2D)
[2] = biological target: T2, recombinant mouse B7-H3 (plate bound); assay: binding ELISA with immobilised recombinant protein (FIG. 28C)
Procedure: (§1) TC6, TF9 and BH6 were produced as chimeric antibodies with a human IgG1 Fc domain. Antibodies were purified on protein A columns (Cytiva) and were tested in ELISA against plate bound antigen, with detection using goat anti-human IgG (H+L) (SeraCare). Cross reactivity against mouse B7-H3 was tested using flow cytometry against the mouse cell line 3T3/NA1.

[3] = biological target: T3, human B7H3 expressed on cell surface; assay: flow cytometry, chimeric IgG1 and anti-human secondary on neuroblastoma lines and B7-H3 positive Jurkat lines (FIG. 6)
Text: FIG. 6—Chimeric antibodies derived from TE9 and BH6 show specificity for human B7H3 expressed on cell surface. TE9 and BH6 ScFv that had been cloned into full human IgG1 antibodies were used in staining experiments. A. Chimeric human IgG1 full antibodies derived from TE9 and BH6 ScFvs were used to stain 3 neuroblastoma cell lines, LAN-1, Kelly and IMR-32. […] B. Chimeric antibodies TE9 and BH6 were used to stain the 3 B7-H3 positive Jurkat cell lines, 4Ig-B7-H3, 2Ig-B7-H3 and T-B7-H3 (see FIG. 2)

[4] = biological target: T4, mouse B7-H3 on the mouse cell line …; assay: flow cytometry on the mouse cell line 3T3/NA1 (FIG. 5A)
Procedure: as §1

| Binder | binding result [1] | further results |
| --- | --- | --- |
| B1 | binds |  |
| B2 |  | binding result [2]: no binding; binding result [3]: binds |
| B3 | binds |  |
| B4 | binds |  |
| B5 |  | binding result [4]: binds; binding result [3]: binds |
| B6 | binds |  |
| B7 | binds |  |
